How the values were obtained:
[1] = molecular target: T1, HIV-1 integrase wild-type (IN1-288) (HIV-1, UniProt P12497 P12497:1148-1435); assay: inhibition; first activity column (headed strand transfer); other column 0.050
[2] = molecular target: T2, gp120 envelope glycoprotein (HIV-1, UniProt P04578 P04578:33-511); assay: competition; ID50, gp120/CD4 ELISA; details: tags: gp120 capture ELISA kit
CD4 = CD4 (UniProt P01730 P01730:26-396); assay: competition; ID50, oligo with immobilized CD4; details: tags: immobilized, gp120 capture ELISA kit
[3] = molecular target: T1, HIV-1 integrase wild-type (IN1-288); assay: inhibition; first activity column (headed strand transfer); other column 0.095; details: G4
[4] = molecular target: T1, HIV-1 integrase wild-type (IN1-288); assay: inhibition; 3'-processing; strand transfer 0.023 uM; details: G4
[5] = molecular target: T1, HIV-1 integrase wild-type (IN1-288); assay: inhibition; first activity column (headed strand transfer); other column 0.055; details: G4
[6] = molecular target: T1, HIV-1 integrase wild-type (IN1-288); assay: inhibition; first activity column (headed strand transfer, order matches 3'-processing in Table D-1); other column 0.600; details: G4
[7] = molecular target: T1, HIV-1 integrase wild-type (IN1-288); assay: inhibition; first activity column (headed strand transfer); other column 0.060; details: G4
[8] = molecular target: T1, HIV-1 integrase wild-type (IN1-288); assay: inhibition; first activity column (headed strand transfer); other column 0.030; details: G4
[9] = molecular target: T1, HIV-1 integrase wild-type (IN1-288); assay: inhibition; 3'-processing (+/-17); strand transfer 24 nM; Table C-2 0.060/0.020 uM; details: intramolecular G4
[10] = molecular target: T1, HIV-1 integrase wild-type (IN1-288); assay: inhibition; first activity column (headed strand transfer); other column 0.610; Table C-2 prints 3' end ggg; details: G4
[11] = molecular target: T2, gp120 envelope glycoprotein; assay: competition; ID50, gp120/CD4 ELISA, preincubated with gp120; details: tags: gp120 capture ELISA kit
[12] = molecular target: T1, HIV-1 integrase wild-type (IN1-288); assay: inhibition; first activity column (headed strand transfer); other column 0.120; details: G4
[13] = molecular target: T1, HIV-1 integrase wild-type (IN1-288); assay: inhibition; 3'-processing; strand transfer 0.125 uM; details: G4
[14] = molecular target: T1, HIV-1 integrase wild-type (IN1-288); assay: inhibition; 3'-processing (+/-26); strand transfer 134 nM; details: G4
[15] = molecular target: T1, HIV-1 integrase wild-type (IN1-288); assay: inhibition; first activity column (headed strand transfer, order matches 3'-processing elsewhere); other column 0.750; Table B-7 gives >0.5 for both; details: G4
[16] = molecular target: T1, HIV-1 integrase wild-type (IN1-288); assay: inhibition; first activity column (headed strand transfer); other column 0.070; details: G4
[17] = molecular target: T1, HIV-1 integrase wild-type (IN1-288); assay: inhibition; first activity column (headed strand transfer); other column 0.040; details: G4
[18] = molecular target: T1, HIV-1 integrase wild-type (IN1-288); assay: inhibition; first activity column (headed strand transfer); other column 0.062; details: G4
[19] = molecular target: T1, HIV-1 integrase wild-type (IN1-288); assay: inhibition; 3'-processing; strand transfer 0.123 uM; details: one tetrad disrupted
[20] = molecular target: T1, HIV-1 integrase wild-type (IN1-288); assay: inhibition; first activity column (headed strand transfer); other column 0.156; details: G4
[21] = molecular target: T1, HIV-1 integrase wild-type (IN1-288); assay: inhibition; first activity column (headed strand transfer); other column 0.500; details: G4
[22] = molecular target: T1, HIV-1 integrase wild-type (IN1-288); assay: inhibition; 3'-processing; strand transfer 620 nM; details: G4
[23] = molecular target: T1, HIV-1 integrase wild-type (IN1-288); assay: inhibition; first activity column (headed strand transfer); other column 0.134; details: G4
[24] = molecular target: T1, HIV-1 integrase wild-type (IN1-288); assay: inhibition; first activity column (headed strand transfer); other column 0.084; details: G4
[25] = molecular target: T1, HIV-1 integrase wild-type (IN1-288); assay: inhibition; first activity column (headed strand transfer); other column 0.016; details: G4, loop 3 inverted
[26] = molecular target: T1, HIV-1 integrase wild-type (IN1-288); assay: inhibition; 3'-processing; strand transfer 0.070 uM; details: G4
[27] = molecular target: T1, HIV-1 integrase wild-type (IN1-288); assay: inhibition; first activity column (headed strand transfer); other column 0.013
[28] = molecular target: T1, HIV-1 integrase wild-type (IN1-288); assay: inhibition; first activity column (headed strand transfer); other column 0.100; details: G4

B1: T30571 (ssDNA)
DNA: GTGGTGGGTGGGTGGGT
modifications: PS at first and last linkages, 5-bromo-dU at positions 5, 9, 13 [n positions 5,9,13 = modified dU]
B1 was tested. Which IC50 ([1]; G4) did it give?
Its IC50 is 0.055 µM.

B2: 1232 random PT (ssDNA)
DNA: GATCCATGTCAGTGACAC
modifications: all PS
How did the IC50 [2] turn out when B2 was run?
The IC50 was over 10 µM.

What about the IC50 (CD4) of the same binder?
Its IC50 is over 10 µM.

B3: T30075 (ssDNA)
DNA: GTGGTGGGTGGGTGGGT
modifications: 3'-cholesterol via triglycyl linker
How did the IC50 [3] turn out when B3 was run?
The IC50 was 0.11 µM.

B4: T30578 (ssDNA)
DNA: GTGGTGGGTGGGTGGGT
modifications: PS at first and last linkages, 5-iodo-dU at position 13 [n positions 13 = modified dU]
With B4 as the binder, how does the IC50 ([1]; G4) read?
Its IC50 is 0.06 µM.

B5: T30341 thrombin-binding aptamer PT (ssDNA)
DNA: GGTTGGTGTGGTTGG
modifications: all PS (Table B-7; Table C-1 lists it as pPT)
B5 was tested. Which IC50 [4] did it give?
The IC50 was 0.042 µM.

B6: T30577 (ssDNA)
DNA: GTGGTGGGTGGGTGGGT
modifications: PS at first and last linkages, 5-iodo-dU at position 9 [n positions 9 = modified dU]
How did the IC50 [5] turn out when B6 was run?
Its IC50 is 0.065 µM.

B7: T30673 (ssDNA)
DNA: GTGGTTGGTGTGGTTGG
modifications: PS at first and last linkages
With B7 as the binder, how does the IC50 [6] read?
The IC50 was 0.79 µM.

B8: T30744 (ssDNA)
DNA: GTGGTGGGCGGGTGGGT
modifications: PS at first and last linkages
How did the IC50 [7] turn out when B8 was run?
Its IC50 is 0.105 µM.

B9: T30702 (ssDNA)
DNA: GTGGTGGGTGGGTGGGT
modifications: PS at first and last linkages, capital T = C5-propynyl dU
How did the IC50 [8] turn out when B9 was run?
The IC50 was 0.032 µM.

B10: T30695 (ssDNA)
DNA: GGGTGGGTGGGTGGGT
modifications: PS at first and last linkages
B10 was tested. Which IC50 [9] did it give?
Its IC50 is 0.043 µM.

B11: T30719 (ssDNA)
DNA: GGGTGGGTGGGTGGGT
modifications: PS at first and last linkages, capital T = C5-propynyl dU
With B11 as the binder, how does the IC50 [5] read?
Its IC50 is 0.055 µM.

B12: T30579 (ssDNA)
DNA: GTGGTGGGTGGGTGGGT
modifications: PS at first and last linkages, 5-iodo-dU at positions 5, 9, 13 [n positions 5,9,13 = modified dU]
With B12 as the binder, how does the IC50 [5] read?
Its IC50 is 0.06 µM.

B13: 1174 (ssDNA)
DNA: GGGTGGGTGGGTGGGTGG
modifications: all PS
Which IC50 [2] does the source give for B13 here?
Its IC50 is 0.09 µM.

B14: T30699 (ssDNA)
DNA: GTGGGTGGTGGGGTGGT
modifications: PS at first and last linkages
How did the IC50 ([1]; G4, loops 1 and 3 inverted) turn out when B14 was run?
Its IC50 is 0.136 µM.

B15: T30674 (ssDNA)
DNA: GTGGTTGGTGTGGTTGGT
modifications: PS at first and last linkages
For B15, which IC50 [10] is on record?
Its IC50 is 0.76 µM.

B16: I100-12 (ssDNA)
DNA: GTTGGGGGTTGTTGGTGGGGTGGTGG
modifications: all PS
What does the source list for B16?
IC50 [11]: 0.08 µM; IC50 (CD4): 0.475 µM

B17: T30678 (ssDNA)
DNA: GTGGTGGGTGGGTTGGT
modifications: PS at first and last linkages
How did the IC50 [12] turn out when B17 was run?
The IC50 was 0.098 µM.

B18: T30175 (ssDNA)
DNA: GTGGTGGGTGGGTGGGT
modifications: all phosphodiester
B18 was tested. Which IC50 [13] did it give?
The IC50 was 0.17 µM.

B19: T30676 (ssDNA)
DNA: GTGGTGGGTGTGGTGGGT
modifications: PS at first and last linkages
For B19, which IC50 [14] is on record?
Its IC50 is 0.148 µM.

B20: T30701 (ssDNA)
DNA: GTGGTGGGTGGGTGGGT
modifications: PS at first and last linkages, capital T = C5-propynyl dU
For B20, which IC50 [8] is on record?
Its IC50 is 0.072 µM.

B21: T30659 thrombin-binding aptamer pPT (ssDNA)
DNA: GGTTGGTGTGGTTGG
modifications: PS at first and last linkages (Table B-7; Table C-1 lists it as PT)
For B21, which IC50 [15] is on record?
The IC50 was 0.87 µM.

B22: I100-21 (ssDNA)
DNA: GTGGTGGGTGGGTGGGTGGTGGGTGGTGGTTGTGGGTGGGTGGTG
modifications: all PS
Which IC50 [11] does the source give for B22 here?
The IC50 was 0.07 µM.

And the IC50 (CD4)?
Its IC50 is 0.048 µM.

B23: T30570 (ssDNA)
DNA: GTGGTGGGTGGGTGGGT
modifications: PS at first and last linkages, 5-bromo-dU at position 13 [n positions 13 = modified dU]
With B23 as the binder, how does the IC50 [16] read?
The IC50 was 0.09 µM.

B24: T30700 (ssDNA)
DNA: GTGGTGGGTGGGTGGGT
modifications: PS at first and last linkages, capital T = C5-propynyl dU
Which IC50 [17] does the source give for B24 here?
The IC50 was 0.082 µM.

B25: T30720 (ssDNA)
DNA: GGGGTGGTGGGTGGGT
modifications: PS at first and last linkages, capital T = C5-propynyl dU
With B25 as the binder, how does the IC50 [18] read?
The IC50 was 0.059 µM.

B26: T30526 (ssDNA)
DNA: GTGATGGGTGGGTGGGT
modifications: PS at first and last linkages
Which IC50 [19] does the source give for B26 here?
Its IC50 is 0.2 µM.

B27: T30679 (ssDNA)
DNA: GTGGTTGGTGGGTGGGT
modifications: PS at first and last linkages
B27 was tested. Which IC50 [20] did it give?
The IC50 was 0.159 µM.

B28: T30675 (ssDNA)
DNA: GTGGTGGGTGTGGTTGGT
modifications: PS at first and last linkages
Which IC50 [21] does the source give for B28 here?
Its IC50 is 0.485 µM.

B29: T30677 (ssDNA)
DNA: GTGGTTGGTGGGTTGGT
modifications: PS at first and last linkages
How did the IC50 [22] turn out when B29 was run?
The IC50 was 0.725 µM.

B30: 1231 random (ssDNA)
DNA: GATCCATGTCAGTGACAC
modifications: phosphodiester, amine
Which IC50 [2] does the source give for B30 here?
The IC50 was over 100 µM.

And the IC50 (CD4)?
Its IC50 is over 50 µM.

B31: T30722 (ssDNA)
DNA: GTGGGTGGTGGGTGGGT
modifications: PS at first and last linkages, capital T = C5-propynyl dU
B31 was tested. Which IC50 [23] did it give?
The IC50 was 0.129 µM.

B32: T30661 (ssRNA)
RNA: GUGGUGGGUGGGUGGGU
modifications: PS at first and last linkages, RNA sugars
With B32 as the binder, how does the IC50 [24] read?
Its IC50 is 0.111 µM.

B33: T30698 (ssDNA)
DNA: GTGGTGGGTGGGGTGGT
modifications: PS at first and last linkages
How did the IC50 [25] turn out when B33 was run?
The IC50 was 0.15 µM.

B34: T30038 (ssDNA)
DNA: GTGGTGGGTGGGTGGGT
modifications: all PS
How did the IC50 [26] turn out when B34 was run?
Its IC50 is 0.09 µM.

B35: T30576 (ssDNA)
DNA: GTGGTGGGTGGGTGGGT
modifications: PS at first and last linkages, 5-iodo-dU at position 5 [n positions 5 = modified dU]
How did the IC50 ([1]; G4) turn out when B35 was run?
Its IC50 is 0.065 µM.

B36: T30697 (ssDNA)
DNA: GTGGTGGGGTGGTGGGT
modifications: PS at first and last linkages
Which IC50 ([27]; G4, loop 2 inverted) does the source give for B36 here?
Its IC50 is 0.13 µM.

B37: T30696 (ssDNA)
DNA: GTGGGTGGTGGGTGGGT
modifications: PS at first and last linkages
How did the IC50 ([27]; G4, loop 1 inverted) turn out when B37 was run?
The IC50 was 0.122 µM.

B38: T30745 (ssDNA)
DNA: GTGGTGGGTGGGCGGGT
modifications: PS at first and last linkages
How did the IC50 [28] turn out when B38 was run?
The IC50 was 0.1 µM.

Source: patent publication US6323185, “Anti-viral guanosine-rich oligonucleotides and method of treating HIV” (The United States of America as represented by the …)
